Test [1] concerns the target hNaV1.5 ΔKPQ (deletion of lysine, proline and glutamine at positions 1505–1507) (human) (UniProt Q14524).
The target of test [2] is hNaV1.5 (human voltage-activated sodium channel alpha subunit NaV1.5, wild type) (human) (UniProt Q14524).

On to KKLITFILKKTREK [β4 peptide (derived from Homo sapiens sodium channel β4 subunit)], for which the normalized INaR peak current, whole-cell voltage clamp of HEK293T cells, 30 μM β4 peptide in the pipette, against wild-type hNaV1.5 with the peptide (fold (against wild type with β4 peptide)) in test [1] was 2. Moreover, the current availability at pulse III (0 mV) after conditioning pulses from −20 to 90 mV and 5 ms at −100 mV, 30 μM β4 peptide in the pipette in test [2] stood at 1.5 fold.

The values above are taken from paper PMC12414692.
